Key:
[1] = biological target: the molecule itself; assay: self-assembly in E. coli; 5-25% sucrose density gradient, SDS-PAGE with Coomassie or anti-FLAG M2 western blot
Protocol: (§1) To characterize the expression of the wild-type and epitope-tagged (mature) glycinin A₁ₐB1b protein in E. coli, plasmids pMON65950, pMON65951, and pMON65952 are transformed into E. coli Origami™ (DE3) competent cells according to manufacturer's instructions (Novagen). A single colony is used to inoculate 2 ml LB medium. The culture is grown at 37° C. until a cell density corresponding to A₆₀₀=0.6 is achieved. An amount corresponding to a final concentration of 1 mM isopropyl-1-thio-β-D-galactopyranoside (IPTG) is added to induce protein expression and the culture is incubated at temperatures ranging from 20° to 37° C. at 225 rpm for time periods up to 20 hours. Cells are harvested by centrifugation at 5,000 rpm for 15 min at 4° C. The cell pellet is re-suspended in protein extraction buffer consisting of 20 mM Tris-HCl, pH 7.4, 0.4 M NaCl, 0.1% TritonX-100, 40 μl/ml Protease Inhibitor Cocktail, (stock: 1 tablet/2 ml, Boehringer Mannheim, Indianapolis, Ind.). The cells are then disrupted by sonication (Branson Sonifier 450, Branson Precision Processing, Danbury, Conn.) while maintaining at cold temperature with ice. Soluble proteins are separated from the insoluble fraction by centrifugation at 13,000 rpm for 5 minutes. […]

[2] = biological target: the molecule itself; assay: self-assembly in E. coli; 5-25% sucrose density gradient, SDS-PAGE with Coomassie staining
Protocol: as §1

[3] = biological target: the molecule itself; assay: self-assembly in E. coli; sucrose density gradient, anti-FLAG western blot of fractions
Protocol: To determine if the recombinant forms of glycinin A₁ₐB1b expressed in E. coli from […], pMON65951, and pMON65952 could self-assemble to form trimers, aliquots of the soluble protein fraction from E. coli lysates are layered onto 12 ml of a 5-25% sucrose density gradient, and centrifuged at 36,000 rpm for 17.5 hours at 20° C. (Sorvall TH-641 rotor; Sorvall Ultra Pro 80 ultracentrifuge). Following centrifugation, the gradient is divided into fractions using a Labconco Autodensi-Flow instrument (Labconco, Kansas City, Mo.), and each fraction is analyzed by SDS-polyacrylamide gel electrophoresis followed either by Coomassie staining or by western blot analysis using Anti-FLAG M2 antibody (Stratagene Corporation, La Jolla, Calif.), to determine which fractions contained glycinin A₁ₐB1b. 7S and 11S soy protein fractions, as well as ovalbumin (45 kD) and aldolase (158 kD), are run as size markers on separate gradients.
This example sets forth confirmation of the protein structure from the expression of modified glycinin A₁ₐB1b clones. The assembly properties of the following modified forms of the protein (indicated by mutant ID number), each containing a different isoleucine substitution, are determined as described in Example 3. Western blot analysis of sucrose gradient fractions is carried out as in Example 3 using anti-FLAG antibody for each of mutants G1-4 through G13-2.

Protein	binding result [3]	other results
amino-terminal epitope (FLAG)-tagged form of glycinin A1aB1b encoded by pMON65951 (other, Mature glycinin A1aB1b with start Met and N-terminal FLAG, made in E. coli; self-assembles to trimers; also called pMON65951 protein) MDYKDDDDKFSSREQPQQNECQIQKLNALKPDNRIESEGGLIETWNPNNKPFQCAGVALSRCTLNRNALRRPSYTNGPQEIYIQQGKGIFGMIYPGCPSTFEEPQQPQQRGQSSRPQDRHQKIYNFREGDLIAVPTGVAWWMYNNEDTPVVAVSIIDTNSLENQLDQMPRRFYLAGNQEQEFLKYQQEQGGHQSQKGKHQQEEENEGGSILSGFTLEFLEHAFSVDKQIAKNLQGENEGEDKGAIVTVKGGLSVIKPPTDEQQQRPQEEEEEEEDEKPQCKGKDKHCQRPRGSQSKSRRNGIDETICTMRLRHNIGQTSSPDIYNPQAGSVTTATSLDFPALSWLRLSAEFGSLRKNAMFVPHYNLNANSIIYALNGRALIQVVNCNGERVFDGELQEGRVLIVPQNFVVAARSQSDNFEYVSFKTNDTPMIGTLAGANSLLNALPEEVIQHTFNLKSQQARQIKNNNPFKFLVPPQESQKRAVA		binding result [1]: binds
carboxy-terminal epitope (FLAG)-tagged form of glycinin A1aB1b encoded by pMON65952 (other, Mature glycinin A1aB1b with C-terminal FLAG, made in E. coli; self-assembles to trimers; Template of the isoleucine mutants; also called pMON65952 protein) MFSSREQPQQNECQIQKLNALKPDNRIESEGGLIETWNPNNKPFQCAGVALSRCTLNRNALRRPSYTNGPQEIYIQQGKGIFGMIYPGCPSTFEEPQQPQQRGQSSRPQDRHQKIYNFREGDLIAVPTGVAWWMYNNEDTPVVAVSIIDTNSLENQLDQMPRRFYLAGNQEQEFLKYQQEQGGHQSQKGKHQQEEENEGGSILSGFTLEFLEHAFSVDKQIAKNLQGENEGEDKGAIVTVKGGLSVIKPPTDEQQQRPQEEEEEEEDEKPQCKGKDKHCQRPRGSQSKSRRNGIDETICTMRLRHNIGQTSSPDIYNPQAGSVTTATSLDFPALSWLRLSAEFGSLRKNAMFVPHYNLNANSIIYALNGRALIQVVNCNGERVFDGELQEGRVLIVPQNFVVAARSQSDNFEYVSFKTNDTPMIGTLAGANSLLNALPEEVIQHTFNLKSQQARQIKNNNPFKFLVPPQESQKRAVADYKDDDDK		binding result [1]: binds
mature form (plus additional methionine encoded by start codon) of glycinin A1aB1b encoded by pMON65950 (other, Soybean seed storage protein subunit made in E. coli Origami (DE3), no FLAG tag; also called wild-type (mature) glycinin A1aB1b; native form) MFSSREQPQQNECQIQKLNALKPDNRIESEGGLIETWNPNNKPFQCAGVALSRCTLNRNALRRPSYTNGPQEIYIQQGKGIFGMIYPGCPSTFEEPQQPQQRGQSSRPQDRHQKIYNFREGDLIAVPTGVAWWMYNNEDTPVVAVSIIDTNSLENQLDQMPRRFYLAGNQEQEFLKYQQEQGGHQSQKGKHQQEEENEGGSILSGFTLEFLEHAFSVDKQIAKNLQGENEGEDKGAIVTVKGGLSVIKPPTDEQQQRPQEEEEEEEDEKPQCKGKDKHCQRPRGSQSKSRRNGIDETICTMRLRHNIGQTSSPDIYNPQAGSVTTATSLDFPALSWLRLSAEFGSLRKNAMFVPHYNLNANSIIYALNGRALIQVVNCNGERVFDGELQEGRVLIVPQNFVVAARSQSDNFEYVSFKTNDTPMIGTLAGANSLLNALPEEVIQHTFNLKSQQARQIKNNNPFKFLVPPQESQKRAVA		binding result [2]: binds
glycinin A1aB1b mutant g3-5 (other) FSSREQPQQNECQIQKLNAIKPDNRIESEGGLIETWNPNNKPFQCAGVALSRCTLNRNALRRPSYTNGPQEIYIQQGKGIFGMIYPGCPSTFEEPQQPQQRGQSSRPQDRHQKIYNFREGDIIAVPTGVAWWMYNNEDTPVVAVSIIDTNSIENQLDQMPRRFYLAGNQEQEFLKYQQEQGGHQSQKGKHQQEEENEGGSILSGFTLEFLEHAFSVDKQIAKNLQGENEGEDKGAIVTVKGGLSVIKPPTDEQQQRPQEEEEEEEDEKPQCKGKDKHCQRPRGSQSKSRRNGIDETICTMRLRHNIGQTSSPDIYNPQAGSVTTATSLDFPAISWLRLSAEFGSIRKNAMFVPHYNLNANSIIYAINGRALIQVVNCNGERVFDGELQEGRVLIVPQNFVVAARSQSDNFEYVSFKTNDTPMIGTLAGANSLLNALPEEVIQHTFNLKSQQARQIKNNNPFKFLVPPQESQKRAVADYKDDDDK	no binding	
glycinin A1aB1b mutant g6-4 (other) FSSREQPQQNECQIQKLNAIKPDNRIESEGGLIETWNPNNKPFQCAGVALSRCTLNRNALRRPSYTNGPQEIYIQQGKGIFGMIYPGCPSTFEEPQQPQQRGQSSRPQDRHQKIYNFREGDLIAVPTGVAWWMYNNEDTPVVAVSIIDTNSIENQLDQMPRRFYLAGNQEQEFLKYQQEQGGHQSQKGKHQQEEENEGGSILSGFTLEFLEHAFSVDKQIAKNLQGENEGEDKGAIVTVKGGLSVIKPPTDEQQQRPQEEEEEEEDEKPQCKGKDKHCQRPRGSQSKSRRNGIDETICTMRLRHNIGQTSSPDIYNPQAGSVTTATSLDFPAISWLRLSAEFGSIRKNAMFVPHYNLNANSIIYAINGRALIQVVNCNGERVFDGELQEGRVLIVPQNFVVAARSQSDNFEYVSFKTNDTPMIGTLAGANSLLNALPEEVIQHTFNLKSQQARQIKNNNPFKFLVPPQESQKRAVADYKDDDDK	no binding	
glycinin A1aB1b mutant g6-7 (other) FSSREQPQQNECQIQKLNAIKPDNRIESEGGLIETWNPNNKPFQCAGVALSRCTLNRNALRRPSYTNGPQEIYIQQGKGIFGMIYPGCPSTFEEPQQPQQRGQSSRPQDRHQKIYNFREGDIIAVPTGVAWWMYNNEDTPVVAVSIIDTNSLENQLDQMPRRFYLAGNQEQEFLKYQQEQGGHQSQKGKHQQEEENEGGSILSGFTLEFLEHAFSVDKQIAKNLQGENEGEDKGAIVTVKGGLSVIKPPTDEQQQRPQEEEEEEEDEKPQCKGKDKHCQRPRGSQSKSRRNGIDETICTMRLRHNIGQTSSPDIYNPQAGSVTTATSLDFPAISWLRLSAEFGSIRKNAMFVPHYNLNANSIIYAINGRALIQVVNCNGERVFDGELQEGRVLIVPQNFVVAARSQSDNFEYVSFKTNDTPMIGTLAGANSLLNALPEEVIQHTFNLKSQQARQIKNNNPFKFLVPPQESQKRAVADYKDDDDK	no binding	
glycinin A1aB1b mutant g10-10 (other) FSSREQPQQNECQIQKLNALKPDNRIESEGGLIETWNPNNKPFQCAGVALSRCTLNRNAIRRPSYTNGPQEIYIQQGKGIFGMIYPGCPSTFEEPQQPQQRGQSSRPQDRHQKIYNFREGDLIAVPTGVAWWMYNNEDTPVVAVSIIDTNSLENQLDQMPRRFYLAGNQEQEFLKYQQEQGGHQSQKGKHQQEEENEGGSILSGFTLEFLEHAFSVDKQIAKNLQGENEGEDKGAIVTVKGGLSVIKPPTDEQQQRPQEEEEEEEDEKPQCKGKDKHCQRPRGSQSKSRRNGIDETICTMRIRHNIGQTSSPDIYNPQAGSVTTATSLDFPALSWIRLSAEFGSLRKNAMFVPHYNLNANSIIYALNGRALIQVVNCNGERVFDGELQEGRVIIVPQNFVVAARSQSDNFEYVSFKTNDTPMIGTLAGANSLLNALPEEVIQHTFNLKSQQARQIKNNNPFKFLVPPQESQKRAVADYKDDDDK	no binding	

Source: patent US20050079494A1 (MONSANTO TECHNOLOGY, published 2005)
